The values that follow come from the supplement of paper PMC7877785.

This data set in a line: self-splicing fitness, log relative to wild type (ln ratio); higher = more splicing; Tetrahymena group I intron in knt gene, E. coli kanamycin selection, DiMSum; sequences stand for … in CUCUCU…GGAGGGAAAAGUUAUCAGGCAUGCACCUGGUAGCUAGUCUUUAAACCAAUAGAUUGCAUCGGUUUAAAAGGCAAGACCGUCAAAUUGCGGGAAAGGGGUCAACAGCCGUUCAGUACCAAGUCUCAGGGGAAACUUUGAGAUGGCCUUGCAAAGGGUAUGGUAAUAAGCUGACGGACAUGGUCCUAACCACGCAGCCAAGUCCUAAGUCAACAGAUCUUCUGUUGAUAUGGAUGCAGUUCACAGACUAAAUGUCGGUCGGGGAAGAUGUAUUCUUCUCAUAAGAUAUAGUCGGACCUCUCCUUAAUGGGAGCUAGCGGAUGAAGUGAUGCAACACUGGAGCCGCUGGGAACUAAUUUGUAUGCGAAAGUAUAUUGAUUAGUUUUGGAGUACUCGUGGUCG
The method in brief:
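Library with all eight P1ex-region intron nucleotides randomised, intron inside the knt kanamycin-resistance gene on pET-22b(+), in E. coli BL21(DE3). Cells grew overnight at 37°C or 30°C on LB agar with or without 25 μg/mL kanamycin (plus 100 μg/mL carbenicillin, 50 μM IPTG, 0.2% rhamnose), in six replicate transformations. Pooled colonies were amplicon-sequenced on Illumina HiSeq 2500. DiMSum fitness is the error-weighted combination of wild-type-normalised replicate fold changes, kanamycin versus none.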

± gives the uncertainty stated by the source.

Regarding UUGUAGCAAUAUUACGCCAG, the “self-splicing fitness (ln)” value (30 °C) is -0.515 ± 0.14 and the “self-splicing fitness (ln)” value (37 °C) was -0.137 ± 0.2. On to UAUCAGCAAUAUUACGCAGA, for which the “self-splicing fitness (ln)” value is -1.57 ± 0.15 (30 °C) and -1.03 ± 0.1 (37 °C). In the case of UCGCAGCAAUAUUACGACGU, the “self-splicing fitness (ln)” value is -1.46 ± 0.076 (30 °C) and -0.706 ± 0.074 (37 °C).

Regarding AAUAAGCAAUAUUACGCCUA, the “self-splicing fitness (ln)” value was 0.0474 ± 0.09 (30 °C) and -0.183 ± 0.098 (37 °C). For CAAUAGCAAUAUUACGUCAA, the “self-splicing fitness (ln)” value reads like this: (30 °C) -3.04 ± 0.22; (37 °C) -2.01 ± 0.28. The corresponding values for AGAAAGCAAUAUUACGGUGG are -3.11 ± 0.18 and -2.32 ± 0.17. In the case of UCUAAGCAAUAUUACGAACA, the “self-splicing fitness (ln)” value is, setting by setting: (30 °C) -1.21 ± 0.28; (37 °C) -1.2 ± 0.2.

Consider AAAUAGCAAUAUUACGGUGC, for which the “self-splicing fitness (ln)” value is, setting by setting: (30 °C) -4.05 ± 0.43; (37 °C) -1.81 ± 0.31. In the case of UCACAGCAAUAUUACGAUCA, the “self-splicing fitness (ln)” value by setting is: (30 °C) -1.45 ± 0.091; (37 °C) -0.503 ± 0.088. For CGCGAGCAAUAUUACGCUGA, the “self-splicing fitness (ln)” value is, setting by setting: (30 °C) -2.03 ± 0.22; (37 °C) -1.78 ± 0.35.

Take UGUAAGCAAUAUUACGCUUU: the “self-splicing fitness (ln)” value is -3.09 ± 0.26 (30 °C) and -2.72 ± 0.27 (37 °C). Regarding ACUAAGCAAUAUUACGUUUU, the “self-splicing fitness (ln)” value (30 °C) is -2.55 ± 0.093 and the “self-splicing fitness (ln)” value (37 °C) was -1.54 ± 0.1. ACUCAGCAAUAUUACGUGUU: the “self-splicing fitness (ln)” value by setting is: (30 °C) -3.14 ± 0.1; (37 °C) -1.28 ± 0.088. As to GAGUAGCAAUAUUACGGCCG, the “self-splicing fitness (ln)” value runs as follows: (30 °C) -1.24 ± 0.15; (37 °C) -0.0588 ± 0.23.

As to AUUCAGCAAUAUUACGCACC, the “self-splicing fitness (ln)” value (30 °C) was -0.502 ± 0.1 and the “self-splicing fitness (ln)” value (37 °C) was 0.457 ± 0.12.

Take GCACAGCAAUAUUACGAAAA: the “self-splicing fitness (ln)” value runs as follows: (30 °C) -1.7 ± 0.1; (37 °C) -1.09 ± 0.12.

On to CAUGAGCAAUAUUACGGUGU, for which the “self-splicing fitness (ln)” value (30 °C) is -4.27 ± 0.28 and the “self-splicing fitness (ln)” value (37 °C) was -2.54 ± 0.23.

GGAGAGCAAUAUUACGUAAU: the “self-splicing fitness (ln)” value (37 °C) is -0.814 ± 0.2. As for AUUAAGCAAUAUUACGAACG, the “self-splicing fitness (ln)” value is -1.59 ± 0.18 (30 °C) and -0.243 ± 0.15 (37 °C).

On to CCUCAGCAAUAUUACGUUCC, for which the “self-splicing fitness (ln)” value runs as follows: (30 °C) -3.09 ± 0.15; (37 °C) -2.42 ± 0.33. Consider UAAUAGCAAUAUUACGGAAC, for which the “self-splicing fitness (ln)” value reads like this: (30 °C) -3.01 ± 0.2; (37 °C) -0.714 ± 0.16. With GCUUAGCAAUAUUACGACUG, the “self-splicing fitness (ln)” value (30 °C) was -1.67 ± 0.1 and the “self-splicing fitness (ln)” value (37 °C) is -0.937 ± 0.11.

Turning to UAGGAGCAAUAUUACGAGCG, the “self-splicing fitness (ln)” value was -3.58 ± 0.4 (30 °C) and -1.31 ± 0.35 (37 °C). As to GCCAAGCAAUAUUACGCAAG, the “self-splicing fitness (ln)” value was -2.89 ± 0.17 (30 °C) and -1.7 ± 0.2 (37 °C). As to CCGAAGCAAUAUUACGACGA, the “self-splicing fitness (ln)” value was -1.44 ± 0.12 (30 °C) and -0.711 ± 0.13 (37 °C). Turning to ACCCAGCAAUAUUACGGGUC, the “self-splicing fitness (ln)” value reads like this: (30 °C) -1.89 ± 0.085; (37 °C) -2.74 ± 0.19. As for GAGUAGCAAUAUUACGAGCA, the “self-splicing fitness (ln)” value (30 °C) is -2.06 ± 0.21 and the “self-splicing fitness (ln)” value (37 °C) came out at 0.532 ± 0.14. As for CGGCAGCAAUAUUACGGUGA, the “self-splicing fitness (ln)” value (30 °C) is -3.35 ± 0.21 and the “self-splicing fitness (ln)” value (37 °C) was -1.75 ± 0.17. On to UAGAAGCAAUAUUACGUUAA, for which the “self-splicing fitness (ln)” value was -3.14 ± 0.16 (30 °C) and -1.39 ± 0.15 (37 °C). As for ACCAAGCAAUAUUACGCUCA, the “self-splicing fitness (ln)” value is -0.49 ± 0.098 (30 °C) and -0.055 ± 0.11 (37 °C). The corresponding values for GGGUAGCAAUAUUACGGGCG are -0.346 ± 0.098 and -0.12 ± 0.13. Consider UCUUAGCAAUAUUACGCAAU, for which the “self-splicing fitness (ln)” value (37 °C) is -2.53 ± 0.36. As for GUGUAGCAAUAUUACGUUAA, the “self-splicing fitness (ln)” value (30 °C) is -2.21 ± 0.2 and the “self-splicing fitness (ln)” value (37 °C) is -1.8 ± 0.16.

Regarding AUAAAGCAAUAUUACGAAUU, the “self-splicing fitness (ln)” value by setting is: (30 °C) -1.23 ± 0.064; (37 °C) -0.731 ± 0.089. Take GUAUAGCAAUAUUACGGUAU: the “self-splicing fitness (ln)” value (30 °C) was -2.73 ± 0.18 and the “self-splicing fitness (ln)” value (37 °C) is -2.26 ± 0.19.

For GGUAAGCAAUAUUACGCAGU, the “self-splicing fitness (ln)” value (30 °C) is -1.51 ± 0.17 and the “self-splicing fitness (ln)” value (37 °C) is -1.55 ± 0.24. Consider GUGAAGCAAUAUUACGAGCA, for which the “self-splicing fitness (ln)” value reads like this: (30 °C) 0.204 ± 0.1; (37 °C) -0.115 ± 0.14. With CGUCAGCAAUAUUACGAUUA, the “self-splicing fitness (ln)” value was -0.469 ± 0.17 (30 °C) and 0.0103 ± 0.13 (37 °C). Consider CCGCAGCAAUAUUACGUCAG, for which the “self-splicing fitness (ln)” value is -0.624 ± 0.054 (30 °C) and 0.0667 ± 0.065 (37 °C). As for GGUAAGCAAUAUUACGCAAA, the “self-splicing fitness (ln)” value was -2.37 ± 0.22 (30 °C) and -1.15 ± 0.17 (37 °C).

With CUCAAGCAAUAUUACGACGA, the “self-splicing fitness (ln)” value by setting is: (30 °C) -3.03 ± 0.23; (37 °C) -1.35 ± 0.14. For CUGUAGCAAUAUUACGAUCU the same measures were -3.56 ± 0.26 and -2.05 ± 0.29. Consider UUGAAGCAAUAUUACGAUCG, for which the “self-splicing fitness (ln)” value was -0.0761 ± 0.14 (30 °C) and 0.264 ± 0.19 (37 °C). As to UACGAGCAAUAUUACGGAUC, the “self-splicing fitness (ln)” value (30 °C) was -3.56 ± 0.4 and the “self-splicing fitness (ln)” value (37 °C) was -2.63 ± 0.37. For GGGCAGCAAUAUUACGCGUC, the “self-splicing fitness (ln)” value (30 °C) is -2.55 ± 0.4 and the “self-splicing fitness (ln)” value (37 °C) is -1.71 ± 0.31. For CCAUAGCAAUAUUACGUCAU the same measures were -4.08 ± 0.31 and -2.69 ± 0.17. For CAGAAGCAAUAUUACGUUUU, the “self-splicing fitness (ln)” value by setting is: (30 °C) -3.33 ± 0.14; (37 °C) -3.58 ± 0.19. The corresponding values for GGGCAGCAAUAUUACGCACA are -0.436 ± 0.23 and 0.448 ± 0.23. UGAGAGCAAUAUUACGUUAG: the “self-splicing fitness (ln)” value (30 °C) is -3.68 ± 0.37 and the “self-splicing fitness (ln)” value (37 °C) was -3.31 ± 0.4. As to ACUCAGCAAUAUUACGUCAC, the “self-splicing fitness (ln)” value is -3.57 ± 0.15 (30 °C) and -1.97 ± 0.15 (37 °C). Consider CAUGAGCAAUAUUACGGUAG, for which the “self-splicing fitness (ln)” value was -2.01 ± 0.1 (30 °C) and -0.949 ± 0.11 (37 °C). With UCUAAGCAAUAUUACGAUCG, the “self-splicing fitness (ln)” value (30 °C) is -1.06 ± 0.099 and the “self-splicing fitness (ln)” value (37 °C) is -0.234 ± 0.1. The corresponding values for UAUGAGCAAUAUUACGAUGG are -3.59 ± 0.29 and -0.796 ± 0.23. With GCCUAGCAAUAUUACGCCAG, the “self-splicing fitness (ln)” value is, setting by setting: (30 °C) -2.75 ± 0.27; (37 °C) -2.67 ± 0.48.

AGAAAGCAAUAUUACGAGAG: the “self-splicing fitness (ln)” value is -3.2 ± 0.16 (30 °C) and -2.44 ± 0.17 (37 °C).

Turning to ACCUAGCAAUAUUACGUAUG, the “self-splicing fitness (ln)” value (30 °C) is -2.71 ± 0.097 and the “self-splicing fitness (ln)” value (37 °C) was -1.61 ± 0.099. As for AGCCAGCAAUAUUACGGUAG, the “self-splicing fitness (ln)” value runs as follows: (30 °C) -2.6 ± 0.097; (37 °C) -0.58 ± 0.085. The corresponding values for AAGCAGCAAUAUUACGAAUG are -3.74 ± 0.18 and -2.45 ± 0.16. Consider GGAAAGCAAUAUUACGCUUA, for which the “self-splicing fitness (ln)” value runs as follows: (30 °C) -0.976 ± 0.17; (37 °C) -0.998 ± 0.19.

On to ACAAAGCAAUAUUACGGGUU, for which the “self-splicing fitness (ln)” value is, setting by setting: (30 °C) -2.54 ± 0.087; (37 °C) -1.23 ± 0.09.
